Data on 14 variants can be found in the supplement of paper PMC11811203.

Sequences and labels used below:
B1: THAP1; numbered along this chain (parent)
chain: MVQSCSAYGCKNRYDKDKPVSFHKFPLTRPSLCKEWEAAVRRKNFKPTKYSSICSEHFTPDCFKRECNNKLLKENAVPTIFLCTEPHDKKEDLLEPQEQLPPPPLPPPVSQVDAAIGLLMPPLQTPVNLSVFCDHNYTVEDTMHQRKRIHQLEQQVEKLRKKLKTAQQRCRRQERQLEKLKEVVHFQKEKDDVSERGYVILPNDYFEIVEVPA

In this data set the parent is B1. The experiment in a line: THAP1 transcriptional activity (GFP+/GFP- enrichment relative to wild-type constructs) (ratio to WT); higher = more THAP1 activity (PSMB5 reporter activation). Conditions: with PSMB5 promoter-GFP reporter. The protocol:
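Deep mutational scan of human THAP1. Site-saturation single amino acid variant library (residues 2-213) was expressed by lentivirus at MOI ~0.3 in THAP1-knockout HEK-293T cells carrying an endogenous PSMB5 promoter-GFP knock-in reporter. Five days post-transduction, BFP+ cells were FACS-sorted into GFP dim and GFP bright populations and variants were counted by Illumina sequencing. Activity is the GFP-bright/GFP-dim read fold change, mean of 2 replicates, divided by the mean fold change of wild-type (synonymous) constructs in the same screen pool; WT = 1.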
With MVQSCSAYGCKNRYDKDKPVSFHKFPLTRPSLCKEWEAAVRRKNFKPTKYSSICSEHFTPKCFKRECNNKLLKENAVPTIFLCTEPHDKKEDLLEPQEQLPPPPLPPPVSQVDAAIGLLMPPLQTPVNLSVFCDHNYTVEDTMHQRKRIHQLEQQVEKLRKKLKTAQQRCRRQERQLEKLKEVVHFQKEKDDVSERGYVILPNDYFEIVEVPA [D61K], the THAP1 transcriptional activity amounted to 0.217.

With MVQSCSAYGCKNRYDKDKPVSFHKFPLTRPSLCKEWEAAVRRKNFKPTKYSSICSEHFTPLCFKRECNNKLLKENAVPTIFLCTEPHDKKEDLLEPQEQLPPPPLPPPVSQVDAAIGLLMPPLQTPVNLSVFCDHNYTVEDTMHQRKRIHQLEQQVEKLRKKLKTAQQRCRRQERQLEKLKEVVHFQKEKDDVSERGYVILPNDYFEIVEVPA [D61L], the THAP1 transcriptional activity was found to be 0.209. The value for MVQSCSAYGCKNRYDKDKPVSFHKFPLTRPSLCKEWEAAVRRKNFKPTKYSSICSEHFTPGCFKRECNNKLLKENAVPTIFLCTEPHDKKEDLLEPQEQLPPPPLPPPVSQVDAAIGLLMPPLQTPVNLSVFCDHNYTVEDTMHQRKRIHQLEQQVEKLRKKLKTAQQRCRRQERQLEKLKEVVHFQKEKDDVSERGYVILPNDYFEIVEVPA [D61G] was 0.219. For the variant MVQSCSAYGCKNRYDKDKPVSFHKFPLTRPSLCKEWEAAVRRKNFKPTKYSSICSEHFTPCCFKRECNNKLLKENAVPTIFLCTEPHDKKEDLLEPQEQLPPPPLPPPVSQVDAAIGLLMPPLQTPVNLSVFCDHNYTVEDTMHQRKRIHQLEQQVEKLRKKLKTAQQRCRRQERQLEKLKEVVHFQKEKDDVSERGYVILPNDYFEIVEVPA [D61C], the THAP1 transcriptional activity worked out at 0.198. As for MVQSCSAYGCKNRYDKDKPVSFHKFPLTRPSLCKEWEAAVRRKNFKPTKYSSICSEHFTPQCFKRECNNKLLKENAVPTIFLCTEPHDKKEDLLEPQEQLPPPPLPPPVSQVDAAIGLLMPPLQTPVNLSVFCDHNYTVEDTMHQRKRIHQLEQQVEKLRKKLKTAQQRCRRQERQLEKLKEVVHFQKEKDDVSERGYVILPNDYFEIVEVPA [D61Q], the THAP1 transcriptional activity stood at 0.282. As for MVQSCSAYGCKNRYDKDKPVSFHKFPLTRPSLCKEWEAAVRRKNFKPTKYSSICSEHFTPFCFKRECNNKLLKENAVPTIFLCTEPHDKKEDLLEPQEQLPPPPLPPPVSQVDAAIGLLMPPLQTPVNLSVFCDHNYTVEDTMHQRKRIHQLEQQVEKLRKKLKTAQQRCRRQERQLEKLKEVVHFQKEKDDVSERGYVILPNDYFEIVEVPA [D61F], the figure is 0.173; as for MVQSCSAYGCKNRYDKDKPVSFHKFPLTRPSLCKEWEAAVRRKNFKPTKYSSICSEHFTPRCFKRECNNKLLKENAVPTIFLCTEPHDKKEDLLEPQEQLPPPPLPPPVSQVDAAIGLLMPPLQTPVNLSVFCDHNYTVEDTMHQRKRIHQLEQQVEKLRKKLKTAQQRCRRQERQLEKLKEVVHFQKEKDDVSERGYVILPNDYFEIVEVPA [D61R], 0.22; as for MVQSCSAYGCKNRYDKDKPVSFHKFPLTRPSLCKEWEAAVRRKNFKPTKYSSICSEHFTPHCFKRECNNKLLKENAVPTIFLCTEPHDKKEDLLEPQEQLPPPPLPPPVSQVDAAIGLLMPPLQTPVNLSVFCDHNYTVEDTMHQRKRIHQLEQQVEKLRKKLKTAQQRCRRQERQLEKLKEVVHFQKEKDDVSERGYVILPNDYFEIVEVPA [D61H], 0.228. On to MVQSCSAYGCKNRYDKDKPVSFHKFPLTRPSLCKEWEAAVRRKNFKPTKYSSICSEHFTPPCFKRECNNKLLKENAVPTIFLCTEPHDKKEDLLEPQEQLPPPPLPPPVSQVDAAIGLLMPPLQTPVNLSVFCDHNYTVEDTMHQRKRIHQLEQQVEKLRKKLKTAQQRCRRQERQLEKLKEVVHFQKEKDDVSERGYVILPNDYFEIVEVPA [D61P], for which the THAP1 transcriptional activity stood at 0.104. The value for MVQSCSAYGCKNRYDKDKPVSFHKFPLTRPSLCKEWEAAVRRKNFKPTKYSSICSEHFTPACFKRECNNKLLKENAVPTIFLCTEPHDKKEDLLEPQEQLPPPPLPPPVSQVDAAIGLLMPPLQTPVNLSVFCDHNYTVEDTMHQRKRIHQLEQQVEKLRKKLKTAQQRCRRQERQLEKLKEVVHFQKEKDDVSERGYVILPNDYFEIVEVPA [D61A] was 0.309; that for MVQSCSAYGCKNRYDKDKPVSFHKFPLTRPSLCKEWEAAVRRKNFKPTKYSSICSEHFTPSCFKRECNNKLLKENAVPTIFLCTEPHDKKEDLLEPQEQLPPPPLPPPVSQVDAAIGLLMPPLQTPVNLSVFCDHNYTVEDTMHQRKRIHQLEQQVEKLRKKLKTAQQRCRRQERQLEKLKEVVHFQKEKDDVSERGYVILPNDYFEIVEVPA [D61S] was 0.312; that for MVQSCSAYGCKNRYDKDKPVSFHKFPLTRPSLCKEWEAAVRRKNFKPTKYSSICSEHFTPTCFKRECNNKLLKENAVPTIFLCTEPHDKKEDLLEPQEQLPPPPLPPPVSQVDAAIGLLMPPLQTPVNLSVFCDHNYTVEDTMHQRKRIHQLEQQVEKLRKKLKTAQQRCRRQERQLEKLKEVVHFQKEKDDVSERGYVILPNDYFEIVEVPA [D61T] was 0.368. For MVQSCSAYGCKNRYDKDKPVSFHKFPLTRPSLCKEWEAAVRRKNFKPTKYSSICSEHFTPNCFKRECNNKLLKENAVPTIFLCTEPHDKKEDLLEPQEQLPPPPLPPPVSQVDAAIGLLMPPLQTPVNLSVFCDHNYTVEDTMHQRKRIHQLEQQVEKLRKKLKTAQQRCRRQERQLEKLKEVVHFQKEKDDVSERGYVILPNDYFEIVEVPA [D61N], the THAP1 transcriptional activity is 0.472. Consider MVQSCSAYGCKNRYDKDKPVSFHKFPLTRPSLCKEWEAAVRRKNFKPTKYSSICSEHFTPMCFKRECNNKLLKENAVPTIFLCTEPHDKKEDLLEPQEQLPPPPLPPPVSQVDAAIGLLMPPLQTPVNLSVFCDHNYTVEDTMHQRKRIHQLEQQVEKLRKKLKTAQQRCRRQERQLEKLKEVVHFQKEKDDVSERGYVILPNDYFEIVEVPA [D61M], for which the THAP1 transcriptional activity is 0.207.
